The data set concerns the molecule itself. The data set is described as follows: SEC; Superdex-75 HR 10/300, Tris buffer with 10 mM EDTA, 1 ml/min; calibrated with alcohol dehydrogenase, BSA, carbonic anhydrase and cytochrome C; nondissociating conditions. (In general: SEC sorts molecules by how far they enter the pores of the column.)

B1: recombinant fragment of bovine conglutinin consisting of the CRD and neck regions (rfBC, residues 199-351 of native conglutinin) (domain or fragment)
chain: GSAEANALKQRVTILDGHLRRFQNAFSQYKKAVLFPDGQAVGEKIFKTAGAVKSYSDAEQLCREAKGQLASPRSSAENEAVTQMVRAQEKNAYLSMNDISTEGRFTYPTGEILVYSNWADGEPNNSDEGQPENCVEIFPDGKWNDVPCSKQLLVICEF
notes: vector-derived first five residues (GLAEV in conglutinin); bovine conglutinin, neck plus carbohydrate recognition domain, the C-terminal 153 residues Asn-199 to Phe-351; also called trimeric recombinant neck plus CRD conglutinin fragment; recombinant homotrimeric fragment of conglutinin
Take B1: the stoichiometry N (commonly a count of units in the complex or per binding partner) came to 3.

The values above are taken from paper PMC6851296, “Atomic-resolution crystal structures of the immune protein conglutinin from cow reveal specific interactions of its binding site with N-acetylglucosamine” (The Journal of Biological Chemistry, 2019).
